Assay results taken from article PMC4840315.

Columns and labels:
insulin [1] = assay: ligand dot blot (densitometric analysis of dots); settings: 2.5 μl (0.09 mg/ml) protein dotted on nitrocellulose; 1 μg/ml insulin, 4 °C overnight; parent: est. 0.12; read off a plot
insulin [2] = assay: pull-down (Ni-Sepharose 6 column, Western blot with anti-insulin antibody, densitometric analysis of bands); settings: 0.1 mg His6-tagged-IGFBP7 mixed with 0.5 mg insulin; parent: est. 0.20; read off a plot

| response (insulin [1]) | response (insulin [2]) | Substance |
| --- | --- | --- |
| 0.53 Gradation | – | wild-type IGFBP7 (insulin-like growth factor binding protein 7), His6-tagged (from UniProt Q16270) R198E |
| 0.11 Gradation | – | wild-type IGFBP7 (insulin-like growth factor binding protein 7), His6-tagged (from UniProt Q16270) H200F |
| 0.025 Gradation | 0.1 Gradation | wild-type IGFBP7 (insulin-like growth factor binding protein 7), His6-tagged (from UniProt Q16270) R198I; H200F |
